Test results from patent US20110189194A1, “USE OF CD95 INHIBITORS FOR THE TREATMENT OF INFLAMMATORY DISORDERS” (Deutsches Krebsforschungszentrum Stiftung des offentlichen …, priority 2008, published 2011).
“Also recorded” adds a separate entry of the source.

T1: mouse CD95L (Mus musculus, UniProt P41047)
T1 construct: T4 (bacteriophage T4 fibritin foldon trimerisation domain)
T1 sequence (P41047 with tags, fused parts or gaps limits assumed): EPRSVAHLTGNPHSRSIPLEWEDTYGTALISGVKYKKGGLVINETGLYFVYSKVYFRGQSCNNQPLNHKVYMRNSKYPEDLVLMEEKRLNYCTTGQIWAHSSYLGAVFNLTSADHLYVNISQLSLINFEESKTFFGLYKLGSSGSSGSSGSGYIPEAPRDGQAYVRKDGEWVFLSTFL

T2: human CD95L (Homo sapiens, UniProt P48023)
T2 construct: T4 (bacteriophage T4 fibritin foldon trimerisation domain)
T2 sequence (P48023 with tags, fused parts or gaps limits assumed): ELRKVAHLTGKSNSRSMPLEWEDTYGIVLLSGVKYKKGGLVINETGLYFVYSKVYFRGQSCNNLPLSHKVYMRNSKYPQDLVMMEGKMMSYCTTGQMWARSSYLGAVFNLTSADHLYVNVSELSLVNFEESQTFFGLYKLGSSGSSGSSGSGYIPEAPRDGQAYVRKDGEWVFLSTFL

B1: CD95-RB69: CD95L-neutralizing trimeric fusion protein: human CD95-ECD (M1-E168) fused to bacteriophage RB69 fibritin foldon domain, with streptag-II (protein)
chain: MVGIWTLLPLVLTSVARLSSKSVNAQVTDINSKGLELRKTVTTVETQNLEGLHHDGQFCHKPCPPGERKARDCTVNGDEPDCVPCQEGKEYTDKAHFSSKCRRCRLCDEGHGLEVEINCTRTQNTKCRCKPNFFCNSTVCEHCDPCTKCEHGIIKECTLTSNTKCKEEGSSGSSGSSGSGYIEDAPSDGKFYVRKDGAWVELPTASGPSSSSSSAWSHPQFEK
modifications: CD95-RB69 fusion protein
notes: CD95L-neutralizing trimeric fusion protein: human CD95-ECD (M1-E168) fused to bacteriophage RB69 fibritin foldon domain, with streptag-II

Columns and labels:
[1] = treated within the first 8 h of injury, compared to placebo, naloxone, or MPSS at later time points; cited from earlier work
mouse CD95L = target: T1, mouse CD95L; test: Neutralisation of mouse CD95L-T4 induced apoptosis on Jurkat cells (DEVD-AFC cleavage); assay type: cell-based; conditions: 250 ng/ml mouse CD95L-T4
Protocol: (§1) Mutation of R87S abrogates the ability of the CD95-RB69 protein to inhibit CD95L-mediated killing of Jurkat cells. Jurkat cells were incubated with 250 ng/ml of human (A) or mouse (B) CD95L-T4 in the presence of wild-type and mutant CD95-RB69 in duplicates for each concentration of the fusion proteins. Decreased cell death is represented by low DEVD-AFC cleavage rates.
(§2) While we were using a human CD95 fusion protein in mouse, we had to analyse the binding of the R87S based control-protein for the human CD95/murine CD95L-interaction prior to the studies performed. We addressed this question by examining the ability of the CD95-fusion proteins to neutralise the apoptosis inducing capacity of either human or mouse CD95L on Jurkat cells in vitro.

injured spinal cord [2] = test: Gene expression profiling (microarray) of spinal cord 24 h after SCI; assay type: in vivo, mice; conditions: compared to vehicle-treated
Protocol: (§3) Mice were treated intravenously 5 minutes after SCI or induction of thioglycolate-induced peritonitis with 50 μg (solved in 200 μl sterile PBS) of either CD95-RB69 or a mutated form, CD95-(R87S)-RB69, which is unable to bind CD95L.
For tissue, spinal cords were dissected out and RNA was extracted with the mirVana microRNA Extraction Kit essentially according to the manufacturer's protocol (Ambion #AM1560). mRNA of injured mice were represented as normalized to the respective uninjured animals. Cells from peritoneal exudates or bone-marrow derived cells were washed with PBS and taken up in RLT-buffer containing β-mercaptoethanol. RNA was extracted using the RNeasy Mini Kit (Qiagen, #74104).
.Cel files were generated using Affymetrix software and imported into Chipinspector. The data were analyzed by Genomatix Chipinspector as described by the manufacturer's guidelines (Genomatix GmbH, Munich, Germany, http://www.genomatix.de). dChip software was used for hierarchical clustering of datasets (http://biosuntharvard.edu/complab/dchip/). A 5% p-value was applied as a cut-off. […]

peritoneum = test: Thioglycolate-induced peritonitis, infiltration of neutrophils; assay type: in vivo, mice
Protocol: as §3
For thioglycolate-induced peritonitis, 1 ml of 3% thioglycolate broth (Fluka #70157) was injected i.p. in CD95L^f/f;LysMcre and CD95L^f/f mice or in wt mice acutely treated with CD95-RB69 or its respective control. In this model, neutrophils are known to start infiltrating the peritoneum within the first hours, whereas macrophage infiltration peaks at 72 h. At the indicated times, mice were sacrificed, blood samples collected and peritoneal cavities lavaged with 10 ml sterile Hanks balanced salt solution (HBSS; Invitrogen #14170-138) containing 0.25% bovine serum albumin (Roche #10735094001). Total cell counts were performed in a Neubauer hematocytometer (Brand), and differential cell counts were carried out by flow cytometry. Results are expressed as the absolute number of neutrophils or macrophages×10^5/cavity. For every experiment performed, blood immune cell populations were analyzed by the appropriate cell markers.

human CD95L = target: T2, human CD95L; test: Neutralisation of human CD95L-T4 induced apoptosis on Jurkat cells (DEVD-AFC cleavage); assay type: cell-based; conditions: 250 ng/ml human CD95L-T4
Protocol: as §1, §2

injured spinal cord [3] = test: Immune cell infiltration into the injured spinal cord after SCI (flow cytometry); assay type: in vivo, mice
Protocol: SCI models: Transection injury of the spinal cord was performed as previously described (Demjen et al., 2004). For the crush injury model, forceps were held on the spinal cord for 15 seconds resulting in a lateral compression of the spinal cord (Plemel et al., 2008). Immediately following injury and for an additional week mice received antibiotics (Gentamycin, 5 ml/kg of a 0.2 mg/ml solution) to prevent infections. Post-operative care included housing of the animals at 27° C., food and water ad libitum, and manual expression of the bladders once daily.
as §3
Stainings were performed on cells derived from bone marrow, peritoneum, blood or spinal cord tissue. For preparation of mouse cells derived from spinal cord tissue, the animals were perfused with HBSS to remove blood from the organs. Then the spinal cord (1 cm around the lesion site) was isolated and lysed for 3 h in thermolysin (0.5 mg/ml, Sigma #T-7902) on a shaker at 37° C. Tissue was incubated for 10 more minutes in trypsin 0.5%-EDTA (Invitrogen #25300096) and finally homogenized by passing 10 times through a Pasteur pipette and through a 40 μm cell strainer (BD #352340).
For all stainings, cells were resuspended in FACS buffer (PBS, 0.2% NaN3) and preincubated in Fc block for 10 minutes before stained with the respective antibodies 30 minutes on ice. For intracellular stainings blood samples were fixed with 4% PFA after Ery Lysis and permeabilized with methanol before the staining. Samples were run on a FACSCantoll flow cytometer (BD) and analyzed using FACSDiva (BD) software or FlowJo software. For all FACS analyses done on cells derived from spinal cord tissue 1,000,000 events were counted.
For all tissue analysis, neutrophils were identified as CD45 positive, GR-1 high-positive and their characteristic forward (FSC) and side scatter (SSC) profile. […]

[4] = 24 h after SCI, 50 μg i.v. 5 minutes after SCI, 1,000,000 events counted

Row | Molecule | motor and sensory function of spinal injured patients [1] | neutralisation of the apoptotic activity of mouse CD95L (mouse CD95L) | expression of genes involved in apoptosis (injured spinal cord [2]) | expression of genes involved in the immune response (injured spinal cord [2]) | Neutrophil number ± SEM in peritoneal cavity (peritoneum; 6 h after thioglycolate, 50 μg i.v. 5 minutes after induction) | infiltration of neutrophils into the peritoneum (in words) (peritoneum; 6 hours after thioglycolate injection) | neutralisation of the apoptotic activity of human CD95L (human CD95L) | CD45 cells in injured spinal cord, Events ± SEM (injured spinal cord [3]; [4]) | Neutrophils in injured spinal cord, Events ± SEM (injured spinal cord [3]; [4]) | infiltration of neutrophils into the lesion site (in words) (injured spinal cord [3]; 24 hours after injury, systemic administration)
1 | C[C@H]1C[C@@H]2[C@H]([C@@H](O)C[C@@]3(C)[C@H]2CC[C@]3(O)C(=O)COC(=O)CCC(=O)O)[C@@]2(C)C=CC(=O)C=C12 [MPSS, methylprednisolone sodium succinate] | significantly improved motor and sensory function | – | – | – | – | – | – | – | – | –
2 | B1 | – | efficiently neutralises | reduced; also recorded: down-regulation | down-regulation | 13.92 ± 1.46 *10^5 | significantly reduced; also recorded: Reduced infiltration | efficiently neutralises | CD45: 698 ± 57 Events | Neutrophils: 400 ± 54 Events | decreased; also recorded: reduced
